Laboratory results taken from the supplement of paper PMC10126150.
± gives the standard deviation of the averaged measurements.

Tested on: ATP
Assay: switch fluorescence ratio, 500 uM ATP over buffer (Cy3 cluster intensity, sum of 5 cycles each) (fold (ratio)); higher = stronger signal-on switching upon ATP binding; sequences stand for … in TCGTCGGCAGCGTCAGATGTGTATAAGAGACAGTTTTTTTTTTTTTTTTTTTTTTTTT…TC
Details: aptamer strand: ATP DNA aptamer (quencher-CACCTGGGGGAGTATTGCGGAGGAAGG + anchor), 100 nM annealed; ATP concentration: 500 uM
Method in brief: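 Values give the fluorescence ratio for each switch-domain sequence, averaged from per-cluster ratios of summed target-cycle to summed buffer-cycle Cy3 intensity. The Cy3-labelled switching-strand clusters sat on a modified Illumina MiSeq flow-cell, were annealed to 100 nM quencher-labelled ATP aptamer, and were imaged in selection buffer, then after 15 min with 500 uM ATP at 22 °C. Five cycles ran with NaOH stripping and re-annealing between them, and clusters outside 100-1000 RFU were excluded.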
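Also: ATP exposure 15 min at 22 °C before imaging.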

Sequence | switch fluorescence ratio
TTATTAAGAC | 1 ± 0.032
TTATTAGGGC | 1 ± 0.083
TTATTAGTCG | 1.017 ± 0.0064
TTATTATAAT | 0.982 ± 0.021
TTATTATGGC | 0.993 ± 0.05
TTATTATTAC | 1.04 ± 0.062
TTATTATTGT | 0.982 ± 0.037
TTATTGACAT | 0.995 ± 0.021
TTATTGACGC | 0.937 ± 0.095
TTATTGCACG | 1.07 ± 0.068
TTATTGCAGC | 1.07 ± 0.063
TTATTGCCTT | 1.03 ± 0.025
TTATTGCTTA | 0.97037 ± 0.00059
TTATTGGAGA | 0.996 ± 0.015
TTATTGGAGC | 0.981 ± 0.015
TTATTGGTAT | 0.998 ± 0.018
TTATTGGTCC | 0.989 ± 0.045
TTATTGGTCG | 1.02 ± 0.061
TTATTGGTGG | 0.966 ± 0.04
TTATTGTGTG | 1 ± 0.023
TTATTGTGTT | 1.01 ± 0.028
TTATTTAAAT | 1 ± 0.04
TTATTTAGAG | 0.985 ± 0.027
TTATTTAGGT | 1.01 ± 0.043
TTATTTATAT | 0.971 ± 0.013

Sequence | switch fluorescence ratio
TTATTTATGC | 1.02 ± 0.055
TTATTTATTG | 0.99 ± 0.016
TTATTTGCGG | 0.989 ± 0.025
TTATTTGGAG | 0.986 ± 0.025
TTATTTGGGC | 1.06 ± 0.081
TTATTTGTCG | 1.01 ± 0.019
TTATTTTAGG | 0.988 ± 0.044
TTATTTTCTG | 1 ± 0.014
TTATTTTGTG | 0.987 ± 0.035
TTATTTTGTT | 0.982 ± 0.034
TTATTTTTTA | 0.993 ± 0.028
TTCAAATCGT | 0.991 ± 0.013
TTCAACTGGG | 1.104 ± 0.0025
TTCAAGCGCT | 0.967 ± 0.019
TTCAAGCTGA | 1.09 ± 0.069
TTCAAGGCAG | 1.03 ± 0.043
TTCAAGTAGT | 0.997 ± 0.02
TTCAAGTGTT | 0.987 ± 0.029
TTCAATAGGG | 1.02 ± 0.036
TTCAATATAG | 1.21 ± 0.29
TTCAATGTCA | 0.99 ± 0.043
TTCAATTGTG | 0.9958 ± 0.0053
TTCACGGGGG | 1.018 ± 0.0078
TTCACGGTTC | 1.02 ± 0.027
TTCACTAGGT | 1.01 ± 0.039

Sequence | switch fluorescence ratio
TTCACTCCGG | 1.2 ± 0.071
TTCAGAGTTG | 0.985 ± 0.095
TTCAGATAGA | 0.9875 ± 0.0037
TTCAGATCCG | 0.967 ± 0.0076
TTCAGATGAA | 0.9987 ± 0.0015
TTCAGATTAC | 1.04 ± 0.024
TTCAGGAATG | 1.01 ± 0.049
TTCAGGCGGT | 0.992 ± 0.025
TTCAGGGGTG | 1.1 ± 0.033
TTCAGGGTAC | 0.987 ± 0.039
TTCAGTAAGA | 1 ± 0.04
TTCAGTAGAT | 0.951 ± 0.032
TTCAGTATTT | 1.08 ± 0.09
TTCAGTGGGG | 0.991 ± 0.039
TTCAGTGGGT | 0.9787 ± 0.009
TTCAGTTTTT | 1 ± 0.026
TTCATAACTT | 0.99 ± 0.018
TTCATAATA | 1.024 ± 0.0029
TTCATAGGCT | 1.03 ± 0.025
TTCATATGTT | 0.981 ± 0.012
TTCATCATAG | 1.05 ± 0.029
TTCATCATGT | 1.02 ± 0.023
TTCATCGGGA | 0.981 ± 0.055
TTCATCGTTT | 0.968 ± 0.011
TTCATCTGTT | 0.9711 ± 0.0084

Sequence | switch fluorescence ratio
TTCATGCATC | 1.83 ± 1.2
TTCATGCTTT | 0.9882 ± 0.0097
TTCATGGGT | 1.017 ± 0.0054
TTCATGTGTG | 1 ± 0.081
TTCATGTTGT | 0.984 ± 0.027
TTCATTGGTA | 1.0186 ± 0.00056
TTCATTTCGT | 1 ± 0.024
TTCATTTTGG | 1.05 ± 0.07
TTCATTTTTG | 0.998 ± 0.044
TTCCAATGTG | 1.01 ± 0.029
TTCCAATTTT | 1.03 ± 0.027
TTCCACAGGA | 1.15 ± 0.15
TTCCACGAAG | 0.996 ± 0.012
TTCCAGTAGT | 1.01 ± 0.03
TTCCATGGGA | 0.9894 ± 0.0098
TTCCATTTTG | 0.992 ± 0.032
TTCCCCATGG | 1.43 ± 0.6
TTCCCCGGTG | 1.21 ± 0.24
TTCCCGATGT | 1.02 ± 0.0059
TTCCCGGCTG | 1.03 ± 0.016
TTCCCGTGCT | 1.022 ± 0.0076
TTCCGAGGG | 1.102 ± 0.011
TTCCGCGCAG | 1.18 ± 0.016
TTCCGGCTAT | 1.15 ± 0.064
TTCCGGGTG | 3.14 ± 0.75

Sequence | switch fluorescence ratio
TTCCGGGTGA | 1.23 ± 0.31
TTCCGGGTTG | 1.34 ± 0.35
TTCCGTCTAT | 1.08 ± 0.086
TTCCGTTGCG | 1.16 ± 0.2
TTCCGTTTGA | 1.24 ± 0.42
TTCCTAAAGT | 0.9622 ± 0.0039
TTCCTATCGT | 1.046 ± 0.0022
TTCCTATTGA | 0.99 ± 0.049
TTCCTATTTT | 1 ± 0.029
TTCCTCCCCC | 1.94 ± 0.68
TTCCTCCCGT | 2.01 ± 0.95
TTCCTGGCAT | 1.45 ± 0.42
TTCCTGGCCT | 1.02 ± 0.033
TTCCTGTGAT | 1.22 ± 0.27
TTCCTGTGGG | 1.02 ± 0.061
TTCCTTGGTG | 1.94 ± 0.89
TTCCTTGGTT | 1.01 ± 0.012
TTCCTTTAAA | 1.07 ± 0.065
TTCGAACGGG | 1.01 ± 0.016
TTCGACTCCT | 1.09 ± 0.087
TTCGAGCTTC | 1.07 ± 0.034
TTCGAGGAAT | 1.08 ± 0.099
TTCGAGGGTA | 0.974 ± 0.036
TTCGAGTAGT | 0.998 ± 0.03
TTCGAGTCCG | 1.03 ± 0.06

Sequence | switch fluorescence ratio
TTCGAGTGTC | 1.05 ± 0.034
TTCGAGTTTG | 0.9843 ± 0.0032
TTCGATAGTT | 1.89 ± 1.2
TTCGATTTAT | 1.03 ± 0.024
TTCGCACCGG | 1.021 ± 0.0073
TTCGCAGGGT | 1.039 ± 0.0029
TTCGCAGGTT | 1.05 ± 0.075
TTCGCATAAT | 1.62 ± 0.3
TTCGCATCTA | 1.15 ± 0.056
TTCGCGAAAT | 1.027 ± 0.01
TTCGCGGGGG | 0.979 ± 0.011
TTCGCGGTTA | 1 ± 0.03
TTCGCTAGTG | 0.98 ± 0.033
TTCGCTTAGG | 0.993 ± 0.026
TTCGGAAAGA | 1.013 ± 0.0082
TTCGGAATTA | 0.995 ± 0.0066
TTCGGACTTC | 0.976 ± 0.064
TTCGGAGTT | 1.04 ± 0.017
TTCGGAGTTT | 1.01 ± 0.12
TTCGGCAATG | 1.39 ± 0.38
TTCGGCAGTA | 1 ± 0.025
TTCGGCGAGA | 0.989 ± 0.021
TTCGGCGGCA | 1.02 ± 0.036
TTCGGCGGTA | 0.995 ± 0.011
TTCGGGAGGA | 0.971 ± 0.038

Sequence | switch fluorescence ratio
TTCGGGCTAG | 1.013 ± 0.0052
TTCGGGGAGG | 1.02 ± 0.019
TTCGGGGATT | 1.37 ± 0.58
TTCGGGGGAC | 1.13 ± 0.14
TTCGGGGGTT | 1.01 ± 0.051
TTCGGGGTGC | 2.17 ± 1.6
TTCGGGGTGT | 1.01 ± 0.044
TTCGGGTGGC | 1.02 ± 0.051
TTCGGGTGTT | 0.9932 ± 0.0029
TTCGGTATGC | 0.98 ± 0.047
TTCGGTGGAG | 0.96 ± 0.081
TTCGGTGTTG | 0.969 ± 0.045
TTCGTAAGGG | 1.012 ± 0.01
TTCGTACGTA | 1 ± 0.06
TTCGTACTTT | 1 ± 0.043
TTCGTAGGGC | 1.01 ± 0.055
TTCGTAGTGA | 1.18 ± 0.025
TTCGTATGTT | 1.03 ± 0.05
TTCGTATTTT | 0.992 ± 0.026
TTCGTCAATC | 2.17 ± 1.3
TTCGTCGCTG | 0.999 ± 0.037
TTCGTCTACA | 0.98 ± 0.021
TTCGTCTGCT | 1.02 ± 0.024
TTCGTGCATC | 1.06 ± 0.026
TTCGTGGAAT | 0.977 ± 0.028

Sequence | switch fluorescence ratio
TTCGTTATCT | 0.981 ± 0.015
TTCGTTATGG | 1 ± 0.046
TTCGTTTGTC | 1 ± 0.02
TTCGTTTGTG | 0.971 ± 0.027
TTCGTTTGTT | 1.34 ± 0.56
TTCTAAACGT | 1.06 ± 0.078
TTCTAAATGT | 0.9995 ± 0.0021
TTCTAATGTA | 0.993 ± 0.021
TTCTAATTAT | 0.981 ± 0.019
TTCTAGCCTT | 1.043 ± 0.00045
TTCTATATAT | 1.01 ± 0.035
TTCTATCCTA | 1.02 ± 0.012
TTCTATGTTT | 0.996 ± 0.0094
TTCTATTATA | 0.977 ± 0.018
TTCTATTGGT | 0.9828 ± 0.0023
TTCTCCCGGG | 1.29 ± 0.068
TTCTCGAATT | 1.01 ± 0.039
TTCTCGGATG | 0.995 ± 0.015
TTCTCGTCAA | 5.06 ± 0.96
TTCTCGTGGC | 0.96 ± 0.029
TTCTCGTGTG | 0.974 ± 0.035
TTCTCTTTTG | 0.993 ± 0.031
TTCTGACGG | 1.48 ± 0.55
TTCTGAGGAT | 0.989 ± 0.042
TTCTGAGGTA | 1.01 ± 0.03
